How the values were obtained:
[1] = target: T1, LRP5 (endogenous) (human, UniProt O75197 32-1615); assay: TAP + mass spectrometry, HEK293 cells
T1 construct: whole, on cells

[2] = target: T2, LRP6 (endogenous) (human, UniProt O75581 20-1613); assay: TAP + mass spectrometry, HEK293 cells
T2 construct: whole, on cells
T2 sequence (O75581 20-1613): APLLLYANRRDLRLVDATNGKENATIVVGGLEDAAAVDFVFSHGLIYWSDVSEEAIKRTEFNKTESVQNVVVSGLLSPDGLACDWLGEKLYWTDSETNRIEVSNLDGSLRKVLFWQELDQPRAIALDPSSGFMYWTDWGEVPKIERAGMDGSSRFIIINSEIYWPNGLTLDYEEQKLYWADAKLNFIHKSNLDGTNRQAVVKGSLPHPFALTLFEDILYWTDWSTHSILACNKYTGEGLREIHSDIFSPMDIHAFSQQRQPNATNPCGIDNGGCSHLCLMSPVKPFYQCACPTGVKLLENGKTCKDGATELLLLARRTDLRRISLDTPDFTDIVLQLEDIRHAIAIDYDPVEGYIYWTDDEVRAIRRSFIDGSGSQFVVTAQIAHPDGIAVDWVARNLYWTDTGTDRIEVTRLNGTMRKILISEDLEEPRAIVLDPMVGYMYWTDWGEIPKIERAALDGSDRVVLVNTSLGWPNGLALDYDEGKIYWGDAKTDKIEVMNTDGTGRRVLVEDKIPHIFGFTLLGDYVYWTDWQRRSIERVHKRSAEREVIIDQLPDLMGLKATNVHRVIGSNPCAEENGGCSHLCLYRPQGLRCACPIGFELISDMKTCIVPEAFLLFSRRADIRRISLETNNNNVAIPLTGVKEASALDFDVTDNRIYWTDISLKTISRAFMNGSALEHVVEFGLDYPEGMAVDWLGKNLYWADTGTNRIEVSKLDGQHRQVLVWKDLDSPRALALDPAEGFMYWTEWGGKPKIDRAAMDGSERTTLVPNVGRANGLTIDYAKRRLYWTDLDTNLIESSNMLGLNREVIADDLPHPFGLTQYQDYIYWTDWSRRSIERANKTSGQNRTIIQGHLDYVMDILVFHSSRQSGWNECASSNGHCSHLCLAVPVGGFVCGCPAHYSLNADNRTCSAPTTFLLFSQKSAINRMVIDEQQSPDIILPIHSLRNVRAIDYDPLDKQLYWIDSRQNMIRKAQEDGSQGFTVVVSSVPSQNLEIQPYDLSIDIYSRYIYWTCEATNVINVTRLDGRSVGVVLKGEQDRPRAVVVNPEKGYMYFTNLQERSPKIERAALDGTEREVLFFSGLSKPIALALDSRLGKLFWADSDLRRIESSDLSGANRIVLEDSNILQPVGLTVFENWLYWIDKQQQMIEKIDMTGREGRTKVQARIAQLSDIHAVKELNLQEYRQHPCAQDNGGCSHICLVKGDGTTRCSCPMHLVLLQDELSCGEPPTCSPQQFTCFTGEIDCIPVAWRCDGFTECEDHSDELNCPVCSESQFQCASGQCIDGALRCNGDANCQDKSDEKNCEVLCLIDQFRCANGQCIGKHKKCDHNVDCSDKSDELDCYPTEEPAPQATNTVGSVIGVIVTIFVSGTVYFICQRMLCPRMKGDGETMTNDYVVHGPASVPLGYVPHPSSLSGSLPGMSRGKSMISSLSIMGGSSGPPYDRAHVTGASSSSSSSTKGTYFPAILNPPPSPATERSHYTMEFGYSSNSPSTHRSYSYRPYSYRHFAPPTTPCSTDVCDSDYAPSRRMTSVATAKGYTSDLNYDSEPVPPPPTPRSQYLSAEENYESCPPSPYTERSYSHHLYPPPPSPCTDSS

T1 sequence (O75197 32-1615): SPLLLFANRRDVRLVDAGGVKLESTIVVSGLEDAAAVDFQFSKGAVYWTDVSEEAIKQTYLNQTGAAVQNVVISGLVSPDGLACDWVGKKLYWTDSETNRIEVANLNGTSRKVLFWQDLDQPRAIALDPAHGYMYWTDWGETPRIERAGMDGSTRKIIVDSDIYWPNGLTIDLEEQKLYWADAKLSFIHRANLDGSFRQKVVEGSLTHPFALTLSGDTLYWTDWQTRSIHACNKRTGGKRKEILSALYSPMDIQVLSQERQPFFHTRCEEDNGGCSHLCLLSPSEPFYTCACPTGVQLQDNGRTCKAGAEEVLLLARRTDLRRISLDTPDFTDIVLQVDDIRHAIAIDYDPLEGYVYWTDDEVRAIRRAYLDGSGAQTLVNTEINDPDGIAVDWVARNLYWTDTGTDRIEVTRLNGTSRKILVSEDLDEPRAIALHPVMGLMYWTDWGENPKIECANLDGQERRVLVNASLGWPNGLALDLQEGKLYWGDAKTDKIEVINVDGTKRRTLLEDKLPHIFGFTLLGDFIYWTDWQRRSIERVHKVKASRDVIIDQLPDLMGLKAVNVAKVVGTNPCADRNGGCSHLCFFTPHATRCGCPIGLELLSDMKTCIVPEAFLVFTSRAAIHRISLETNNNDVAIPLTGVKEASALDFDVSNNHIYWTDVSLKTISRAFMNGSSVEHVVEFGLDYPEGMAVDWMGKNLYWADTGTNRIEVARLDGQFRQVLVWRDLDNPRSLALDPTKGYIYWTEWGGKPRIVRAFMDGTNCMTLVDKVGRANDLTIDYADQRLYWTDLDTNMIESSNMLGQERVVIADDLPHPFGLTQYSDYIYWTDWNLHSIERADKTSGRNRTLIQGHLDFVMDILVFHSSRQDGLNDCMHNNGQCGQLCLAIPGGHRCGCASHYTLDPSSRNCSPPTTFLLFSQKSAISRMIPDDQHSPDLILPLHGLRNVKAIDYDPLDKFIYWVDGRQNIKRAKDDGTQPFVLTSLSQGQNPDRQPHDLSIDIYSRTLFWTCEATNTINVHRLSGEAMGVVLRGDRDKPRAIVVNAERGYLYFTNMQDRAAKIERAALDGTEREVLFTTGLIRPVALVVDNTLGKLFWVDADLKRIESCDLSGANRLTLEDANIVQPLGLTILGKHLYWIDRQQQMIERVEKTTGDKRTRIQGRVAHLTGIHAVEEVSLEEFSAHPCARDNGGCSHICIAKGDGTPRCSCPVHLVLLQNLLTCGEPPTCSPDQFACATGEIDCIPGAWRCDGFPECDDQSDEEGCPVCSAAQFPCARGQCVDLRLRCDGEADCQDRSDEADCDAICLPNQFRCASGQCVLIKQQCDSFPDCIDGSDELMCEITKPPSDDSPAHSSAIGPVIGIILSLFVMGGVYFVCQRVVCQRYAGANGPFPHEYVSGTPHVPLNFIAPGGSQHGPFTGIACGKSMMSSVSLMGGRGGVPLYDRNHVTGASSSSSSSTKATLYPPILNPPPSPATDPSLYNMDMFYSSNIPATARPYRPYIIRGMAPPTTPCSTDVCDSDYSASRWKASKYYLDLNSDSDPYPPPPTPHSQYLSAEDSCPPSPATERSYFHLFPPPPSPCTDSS

B1: RNF43 (other, not shown: small tags and cut ends)
chain: GFGRTGLVLAAAVESERSAEQKAIIRVIPLKMDPTGKLNLTLEGVFAGVAEITPAEGKLMQSHPLYLCNASDDDNLEPGFISIVKLESPRRAPRPCLSLASKARMAGERGASAVLFDITEDRAAAEQLQQPLGLTWPVVLIWGNDAEKLMEFVYKNQKAHVRIELKEPPAWPDYDVWILMTVVGTIFVIILASVLRIRCRPRHSRPDPLQQRTAWAISQLATRRYQASCRQARGEWPDSGSSCSSAPVCAICLEEFSEGQELRVISCLHEFHRNCVDPWLHQHRTCPLCMFNITEGDSFSQSLGPSRSYQEPGRRLHLIRQHPGHAHYHLPAAYLLGPSRSAVARPPRPGPFLPSQEPGMGPRHHRFPRAAHPRAPGEQQRLAGAQHPYAQGWGLSHLQSTSQHPAACPVPLRRARPPDSSGSGESYCTERSGYLADGPASDSSSGPCHGSSSDSVVNCTDISLQGVHGSSSTFCSSLSSDFDPLVYCSPKGDPQRVDMQPSVTSRPRSLDSVVPTGETQVSSHVHYHRHRHHHYKKRFQWHGRKPGPETGVPQSRPPIPRTQPQPEPPSPDQQVTRSNSAAPSGRLSNPQCPRALPEPAPGPVDASSICPSTSSLFNLQKSSLSARHPQRKRRGGPSEPTPGSRPQDATVHPACQIFPHYTPSVAYPWSPEAHPLICGPPGLDKRLLPETPGPCYSNSQPVWLCLTPRQPLEPHPPGEGPSEWSSDTAEGRPCPYPHCQVLSAQPGSEEELEELCEQAV
notes: TAP-MS bait
Q: Does B1 bind [1]?
A: no binding

B2: USP47 (enzyme, not shown: small tags and cut ends)
chain: MVPGEENQLVPKEDVFWRCRQNIFDEMKKKFLQIENAAEEPRVLCIIQDTTNSKTVNERITLNLPASTPVRKLFEDVANKVGYINGTFDLVWGNGINTADMAPLDHTSDKSLLDANFEPGKKNFLHLTDKDGEQPQILLEDSSAGEDSVHDRFIGPLPREGSGGSTSDYVSQSYSYSSILNKSETGYVGLVNQAMTCYLNSLLQTLFMTPEFRNALYKWEFEESEEDPVTSIPYQLQRLFVLLQTSKKRAIETTDVTRSFGWDSSEAWQQHDVQELCRVMFDALEQKWKQTEQADLINELYQGKLKDYVRCLECGYEGWRIDTYLDIPLVIRPYGSSQAFASVEEALHAFIQPEILDGPNQYFCERCKKKCDARKGLRFLHFPYLLTLQLKRFDFDYTTMHRIKLNDRMTFPEELDMSTFIDVEDEKSPQTESCTDSGAENEGSCHSDQMSNDFSNDDGVDEGICLETNSGTEKISKSGLEKNSLIYELFSVMVHSGSAAGGHYYACIKSFSDEQWYSFNDQHVSRITQEDIKKTHGGSSGSRGYYSSAFASSTNAYMLIYRLKDPARNAKFLEVDEYPEHIKNLVQKERELEEQEKRQREIERNTCKIKLFCLHPTKQVMMENKLEVHKDKTLKEAVEMAYKMMDLEEVIPLDCCRLVKYDEFHDYLERSYEGEEDTPMGLLLGGVKSTYMFDLLLETRKPDQVFQSYKPGEVMVKVHVVDLKAESVAAPITVRAYLNQTVTEFKQLISKAIHLPAETMRIVLERCYNDLRLLSVSSKTLKAEGFFRSNKVFVESSETLDYQMAFADSHLWKLLDRHANTIRLFVLLPEQSPVSYSKRTAYQKAGGDSGNVDDDCERVKGPVGSLKSVEAILEESTEKLKSLSLQQQQDGDNGDSSKSTETSDFENIESPLNERDSSASVDNRELEQHIQTSDPENFQSEERSDSDVNNDRSTSSVDSDILSSSHSSDTLCNADNAQIPLANGLDSHSITSSRRTKANEGKKETWDTAEEDSGTDSEYDESGKSRGEMQYMYFKAEPYAADEGSGEGHKWLMVHVDKRITLAAFKQHLEPFVGVLSSHFKVFRVYASNQEFESVRLNETLSSFSDDNKITIRLGRALKKGEYRVKVYQLLVNEQEPCKFLLDAVFAKGMTVRQSKEELIPQLREQCGLELSIDRFRLRKKTWKNPGTVFLDYHIYEEDINISSNWEVFLEVLDGVEKMKSMSQLAVLSRRWKPSEMKLDPFQEVVLESSSVDELREKLSEISGIPLDDIEFAKGRGTFPCDISVLDIHQDLDWNPKVSTLNVWPLYICDDGAVIFYRDKTEELMELTDEQRNELMKKESSRLQKTGHRVTYSPRKEKALKIYLDGAPNKDLTQD
notes: TAP-MS bait
Q: Does B2 bind [2]?
A: no binding

Q: Does B2 bind [1]?
A: no binding

B3: PER2 (other, not shown: small tags and cut ends)
chain: MNGYAEFPPSPSNPTKEPVEPQPSQVPLQEDVDMSSGSSGHETNENCSTGRDSQGSDCDDSGKELGMLVEPPDARQSPDTFSLMMAKSEHNPSTSGCSSDQSSKVDTHKELIKTLKELKVHLPADKKAKGKASTLATLKYALRSVKQVKANEEYYQLLMSSEGHPCGADVPSYTVEEMESVTSEHIVKNADMFAVAVSLVSGKILYISDQVASIFHCKRDAFSDAKFVEFLAPHDVGVFHSFTSPYKLPLWSMCSGADSFTQECMEEKSFFCRVSVRKSHENEIRYHPFRMTPYLVKVRDQQGAESQLCCLLLAERVHSGYEAPRIPPEKRIFTTTHTPNCLFQDVDERAVPLLGYLPQDLIETPVLVQLHPSDRPLMLAIHKKILQSGGQPFDYSPIRFRARNGEYITLDTSWSSFINPWSRKISFIIGRHKVRVGPLNEDVFAAHPCTEEKALHPSIQELTEQIHRLLLQPVPHSGSSGYGSLGSNGSHEHLMSQTSSSDSNGHEDSRRRRAEICKNGNKTKNRSHYSHESGEQKKKSVTEMQTNPPAEKKAVPAMEKDSLGVSFPEELACKNQPTCSYQQISCLDSVIRYLESCNEAATLKRKCEFPANVPALRSSDKRKATVSPGPHAGEAEPPSRVNSRTGVGTHLTSLALPGKAESVASLTSQCSYSSTIVHVGDKKPQPELEMVEDAASGPESLDCLAGPALACGLSQEKEPFKKLGLTKEVLAAHTQKEEQSFLQKFKEIRKLSIFQSHCHYYLQERSKGQPSERTAPGLRNTSGIDSPWKKTGKNRKLKSKRVKPRDSSESTGSGGPVSARPPLVGLNATAWSPSDTSQSSCPAVPFPAPVPAAYSLPVFPAPGTVAAPPAPPHASFTVPAVPVDLQHQFAVQPPPFPAPLAPVMAFMLPSYSFPSGTPNLPQAFFPSQPQFPSHPTLTSEMASASQPEFPSRTSIPRQPCACPATRATPPSAMGRASPPLFQSRSSSPLQLNLLQLEEAPEGGTGAMGTTGATETAAVGADCKPGTSRDQQPKAPLTRDEPSDTQNSDALSTSSGLLNLLLNEDLCSASGSAASESLGSGSLGCDASPSGAGSSDTSHTSKYFGSIDSSENNHKAKMNTGMEESEHFIKCVLQDPIWLLMADADSSVMMTYQLPSRNLEAVLKEDREKLKLLQKLQPRFTESQKQELREVHQWMQTGGLPAAIDVAECVYCENKEKGNICIPYEEDIPSLGLSEVSDTKEDENGSPLNHRIEEQT
notes: TAP-MS bait
Q: What does the source list for B3?
A: binding result [2]: no binding; binding result [1]: no binding

B4: FBXO18 (other, not shown: small tags and cut ends)
chain: MRRFKRKHLTAIDCQHLARSHLAVTQPFGQRWTNRDPNHGLYPKPRTKRGSRGQGSQRCIPEFFLAGKQPCTNDMAKSNSVGQDSCQDSEGDMIFPAESSCALPQEGSAGPGSPGSAPPSRKRSWSSEEESNQATGTSRWDGVSKKAPRHHLSVPCTRPREARQEAEDSTSRLSAESGETDQDAGDVGPDPIPDSYYGLLGTLPCQEALSHICSLPSEVLRHVFAFLPVEDLYWNLSLVCHLWREIISDPLFIPWKKLYHRYLMNEEQAVSKVDGILSNCGIEKESDLCVLNLIRYTATTKCSPSVDPERVLWSLRDHPLLPEAEACVRQHLPDLYAAAGGVNIWALVAAVVLLSSSVNDIQRLLFCLRRPSSTVTMPDVTETLYCIAVLLYAMREKGINISNRIHYNIFYCLYLQENSCTQATKVKEEPSVWPGKKTIQLTHEQQLILNHKMEPLQVVKIMAFAGTGKTSTLVKYAEKWSQSRFLYVTFNKSIAKQAERVFPSNVICKTFHSMAYGHIGRKYQSKKKLNLFKLTPFMVNSVLAEGKGGFIRAKLVCKTLENFFASADEELTIDHVPIWCKNSQGQRVMVEQSEKLNGVLEASRLWDNMRKLGECTEEAHQMTHDGYLKLWQLSKPSLASFDAIFVDEAQDCTPAIMNIVLSQPCGKIFVGDPHQQIYTFRGAVNALFTVPHTHVFYLTQSFRFGVEIAYVGATILDVCKRVRKKTLVGGNHQSGIRGDAKGQVALLSRTNANVFDEAVRVTEGEFPSRIHLIGGIKSFGLDRIIDIWILLQPEEERRKQNLVIKDKFIRRWVHKEGFSGFKRYVTAAEDKELEAKIAVVEKYNIRIPELVQRIEKCHIEDLDFAEYILGTVHKAKGLEFDTVHVLDDFVKVPCARHNLPQLPHFRVESFSEDEWNLLYVAVTRAKKRLIMTKSLENILTLAGEYFLQAELTSNVLKTGVVRCCVGQCNNAIPVDTVLTMKKLPITYSNRKENKGGYLCHSCAEQRIGPLAFLTASPEQVRAMERTVENIVLPRHEALLFLVF
notes: TAP-MS bait
Q: Which results are given for B4?
A: binding result [2]: no binding; binding result [1]: no binding

Reference: US20140044713A1 (KONINKLIJKE NEDERLANDSE AKADEMIE VAN WETENSCHAPPEN, published 2014)
